From patent US10006009B2, “Codon-optimized gene for mutated shrimp luciferase and method for use thereof” (JNC CORPORATION, priority 2013, dated 2018)

System: CHO-K1 cells
Assay: Comparison of expression between nanoKAZ and nanoLuc genes in CHO-K1 cells
Type: cell-based, Chinese hamster
Excerpt: In order to compare the gene expression efficiency between the nanoKAZ gene and the nanoLuc gene in the cultured cell system, an expression vector that was different only in the nanoKAZ gene sequence and the nanoLuc gene sequence was constructed. The expression vector constructed was transfected to CHO-K1 cells. Then, the expression level of luciferase activity was compared by the following procedure. In the nanoLuc gene, the gene sequence described in Hall et al. (2012) ACS Chem. Biol. […] was chemically synthesized and provided for use.
The vector was introduced into CHO-K1 cells by the method described in EXAMPLE 3. After incubation for 23 hours, the culture medium and the cell extract were recovered. The luminescence activity in the culture medium and the cells was measured by the method described in EXAMPLE 4, using coelenterazine as a light-emitting substrate.

Molecule | luminescence activity relative to nanoLuc (with signal peptide, secreted into the culture medium) | expression relative to the nanoLuc gene (without secretory signal, in the culture medium and the cells)
nanoKAZ: mutated catalytic 19 kDa domain protein of Oplophorus luciferase encoded by the codon-optimized gene (SEQ ID NO: 1) (protein) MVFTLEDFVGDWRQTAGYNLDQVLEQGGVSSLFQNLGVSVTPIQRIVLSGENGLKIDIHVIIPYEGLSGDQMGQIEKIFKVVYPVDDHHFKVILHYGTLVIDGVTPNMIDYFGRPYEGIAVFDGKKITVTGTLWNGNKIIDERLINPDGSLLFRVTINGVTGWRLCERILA | about 1.4 fold | 
nanoKAZ gene: codon-optimized gene for the mutated catalytic 19 kDa domain of Oplophorus luciferase, SEQ ID NO: 2 (nucleic acid, synthetic DNA) DNA: ATGGTCTTCACCCTGGAGGACTTCGTCGGCGACTGGAGACAGACCGCCGGCTACAACCTGGACCAGGTCCTGGAGCAGGGCGGCGTCAGCAGCCTGTTCCAGAACCTGGGCGTCAGCGTCACCCCCATCCAGAGAATCGTCCTTAGCGGCGAGAACGGCCTGAAGATCGACATCCACGTCATCATCCCCTACGAGGGCCTGAGCGGCGACCAGATGGGCCAGATCGAGAAGATCTTCAAGGTCGTCTACCCCGTCGACGACCACCACTTCAAGGTCATCCTGCACTACGGCACCCTGGTCATCGACGGCGTCACCCCCAACATGATCGACTACTTCGGTAGACCCTACGAGGGCATCGCCGTCTTCGACGGCAAGAAGATCACCGTCACCGGCACCCTGTGGAACGGCAACAAGATCATCGACGAGAGACTGATCAACCCCGACGGCAGCCTGCTGTTCAGAGTCACCATCAACGGCGTCACCGGCTGGAGACTGTGCGAGAGAATCCTGGCCTAA |  | about 2 fold
